Source: patent US20240034757A1 (OXFORD UNIVERSITY INNOVATION, published 2024)

Key:
[1] = target: T1, CCL5_HUMAN (human, UniProt P13501 24-91); assay: BLI
T1 sequence: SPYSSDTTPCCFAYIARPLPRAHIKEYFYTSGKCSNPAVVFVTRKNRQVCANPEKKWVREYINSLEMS

[2] = target: CCL7_HUMAN (human, UniProt P80098 24-99); assay: BLI
[3] = target: T2, CCL8_HUMAN (human, UniProt P80075 24-99); assay: BLI
T2 sequence (looked up): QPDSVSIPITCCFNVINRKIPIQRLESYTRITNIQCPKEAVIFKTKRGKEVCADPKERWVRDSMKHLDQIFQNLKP

[4] = target: CCL11_HUMAN (human, UniProt P51671 24-97); assay: BLI
Sequence of CCL11_HUMAN (P51671 24-97 limits assumed): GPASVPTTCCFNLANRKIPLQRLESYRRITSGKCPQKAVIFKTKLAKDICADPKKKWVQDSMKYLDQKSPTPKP

[5] = target: CCL13_HUMAN (human, UniProt Q99616 24-98); assay: BLI
Sequence of CCL13_HUMAN (Q99616 24-98 limits assumed): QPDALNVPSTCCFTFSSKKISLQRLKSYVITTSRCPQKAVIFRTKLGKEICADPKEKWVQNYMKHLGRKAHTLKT

[6] = target: T3, CCL14_HUMAN (human, UniProt Q16627 22-93); assay: BLI
T3 sequence: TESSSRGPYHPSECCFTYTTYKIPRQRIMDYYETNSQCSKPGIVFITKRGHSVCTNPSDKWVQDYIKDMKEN

[7] = target: T4, CCL16_HUMAN (human, UniProt O15467 24-120); assay: BLI
T4 sequence: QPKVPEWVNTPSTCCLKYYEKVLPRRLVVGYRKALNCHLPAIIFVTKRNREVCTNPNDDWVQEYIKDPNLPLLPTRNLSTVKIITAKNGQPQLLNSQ

[8] = target: T5, CCL17_HUMAN (human, UniProt Q92583 24-94); assay: BLI
T5 sequence: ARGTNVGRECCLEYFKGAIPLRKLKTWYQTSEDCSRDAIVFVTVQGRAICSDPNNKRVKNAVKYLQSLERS

[9] = target: T6, CCL18_HUMAN (human, UniProt P55774 21-89); assay: BLI
T6 sequence: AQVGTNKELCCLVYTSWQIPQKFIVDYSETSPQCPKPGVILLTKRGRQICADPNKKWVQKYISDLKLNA

[10] = target: T7, CCL19_HUMAN (human, UniProt Q99731 22-98); assay: BLI
T7 sequence: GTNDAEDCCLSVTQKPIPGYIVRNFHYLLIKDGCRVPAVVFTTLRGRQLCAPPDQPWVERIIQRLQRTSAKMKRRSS

[11] = target: CCL20_HUMAN (human, UniProt P78556 27-96); assay: BLI
Sequence of CCL20_HUMAN (P78556 27-96 limits assumed): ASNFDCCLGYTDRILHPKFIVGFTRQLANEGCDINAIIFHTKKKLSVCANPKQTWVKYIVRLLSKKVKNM

[12] = target: T8, CCL21_HUMAN (human, UniProt O00585 24-134); assay: BLI
T8 sequence: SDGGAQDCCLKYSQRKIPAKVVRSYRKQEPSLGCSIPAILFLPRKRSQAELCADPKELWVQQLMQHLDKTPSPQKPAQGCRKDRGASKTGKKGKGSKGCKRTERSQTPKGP

[13] = target: T9, CCL22_HUMAN (human, UniProt O00626 25-93); assay: BLI
T9 sequence: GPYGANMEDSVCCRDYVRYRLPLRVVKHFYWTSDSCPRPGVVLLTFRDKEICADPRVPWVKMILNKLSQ

[14] = target: T10, CCL23_HUMAN (human, UniProt P55773 22-120); assay: BLI
T10 sequence: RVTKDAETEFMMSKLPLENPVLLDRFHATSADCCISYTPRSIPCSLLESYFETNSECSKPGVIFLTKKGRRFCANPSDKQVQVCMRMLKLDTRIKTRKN

[15] = target: T11, CCL24_HUMAN (human, UniProt O00175 27-104); assay: BLI
T11 sequence: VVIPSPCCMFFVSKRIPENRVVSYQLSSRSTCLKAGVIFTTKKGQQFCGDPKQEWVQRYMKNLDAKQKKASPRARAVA

[16] = target: CCL2_HUMAN (human, UniProt P13500 24-99); assay: BLI
Sequence of CCL2_HUMAN (P13500 24-99 limits assumed): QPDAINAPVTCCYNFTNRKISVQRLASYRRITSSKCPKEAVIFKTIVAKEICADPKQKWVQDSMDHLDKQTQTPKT

[17] = target: T12, CCL3L1_HUMAN (human, UniProt P16619 24-93); assay: BLI
T12 sequence: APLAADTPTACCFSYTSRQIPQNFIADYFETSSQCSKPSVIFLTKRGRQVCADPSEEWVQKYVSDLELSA

[18] = target: T13, CCL4_HUMAN (human, UniProt P13236 24-92); assay: BLI
T13 sequence: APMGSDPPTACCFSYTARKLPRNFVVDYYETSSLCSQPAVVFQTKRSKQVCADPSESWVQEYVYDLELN

[19] = target: T14, CCL28_HUMAN (human, UniProt Q9NRJ3 23-127); assay: BLI
T14 sequence: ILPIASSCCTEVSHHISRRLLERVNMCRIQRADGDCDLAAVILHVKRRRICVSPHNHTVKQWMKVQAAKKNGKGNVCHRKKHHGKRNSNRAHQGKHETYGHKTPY

[20] = target: T15, CXCL8_HUMAN (human, UniProt P10145 28-99); assay: BLI [Cont.) C]
T15 sequence: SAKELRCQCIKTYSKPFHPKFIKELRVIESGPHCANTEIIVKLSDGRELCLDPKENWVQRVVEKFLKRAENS

[21] = target: T16, CXCL9_HUMAN (human, UniProt Q07325 23-125); assay: BLI [Cont.) C]
T16 sequence: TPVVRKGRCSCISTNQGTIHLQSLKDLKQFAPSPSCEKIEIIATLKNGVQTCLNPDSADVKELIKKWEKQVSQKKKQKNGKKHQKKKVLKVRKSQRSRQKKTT

[22] = target: T17, CXCL4_HUMAN (human, UniProt P02776 32-101); assay: BLI [Cont.) C]
T17 sequence: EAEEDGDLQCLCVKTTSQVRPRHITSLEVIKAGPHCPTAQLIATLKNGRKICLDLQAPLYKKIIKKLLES

Sequence of CCL7_HUMAN (P80098 24-99 limits assumed): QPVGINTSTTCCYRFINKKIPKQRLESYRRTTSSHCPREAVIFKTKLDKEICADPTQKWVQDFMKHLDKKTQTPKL

B1: P1243:G4S:P1156 (designed binder)
chain: RNHTEDNSTEYYDYEEARCACPARHLNNTNGTVLKLLGCHYFCNGTLCTAPDGYPCYNLTAQQVRTLTTYPNTSCAVGVCMKGTCVKNGTMEQCFKTPGGGGSADDDNELFTVQYCGMNCTKDEGGTWTGCTGKKEGCKCYHESGKNYGLCLSTEYTDFSQYGNPSDSEIEAAKPKRSDTLSH
[1]
  Kd: 8.95 nM
[2]
  Kd: 49 nM
[3]
  Kd: 381 nM
[4]
  Kd: 19.7 nM
[5]
  Kd: 1.33 nM
[6]
  Kd: 1.99 nM
[7]
  binding result: no binding (tested: 300 nM)
[8]
  Kd: 3.51 nM
[9]
  Kd: 0.543 nM
[10]
  Kd: 2.92 nM
[11]
  binding result: no binding (tested: 300 nM)
[12]
  Kd: 53.8 nM
[13]
  binding result: no binding (tested: 300 nM)
[14]
  Kd: 0.632 nM
[15]
  Kd: 16.4 nM
[16]
  binding result: no binding (tested: 300 nM)
[17]
  Kd: 4.06 nM
[18]
  Kd: 19.4 nM
[19]
  binding result: no binding (tested: 300 nM)
[20]
  Kd: 7.63 nM
[21]
  binding result: no binding (tested: 300 nM)
[22]
  binding result: no binding (tested: 300 nM)
